Source: publication doi:10.1101/2023.01.03.522599, “Crystal structure of a mammalian CMTM6 and its interaction model with PD-L1” (bioRxiv, 2023)

Target: T1, human PD-L1, BRIL fused to the C-terminus, C-terminally His-tagged (human, UniProt Q9NZQ7 19-290)
T1 construct: PD-L1, human; probably ED, TMD and CD together; also called hPD-L1; source: purified; not shown: BRIL, C-terminal, kept; His-tag, C-terminal, kept
Test: pull-down; purified C-terminally His-tagged hPD-L1 variants (BRIL fused) used to pull down purified His-tag free bCMTM6 variants (BRIL fused); examined by SDS-PAGE
Details: both partners purified

T1 sequence (Q9NZQ7 19-290): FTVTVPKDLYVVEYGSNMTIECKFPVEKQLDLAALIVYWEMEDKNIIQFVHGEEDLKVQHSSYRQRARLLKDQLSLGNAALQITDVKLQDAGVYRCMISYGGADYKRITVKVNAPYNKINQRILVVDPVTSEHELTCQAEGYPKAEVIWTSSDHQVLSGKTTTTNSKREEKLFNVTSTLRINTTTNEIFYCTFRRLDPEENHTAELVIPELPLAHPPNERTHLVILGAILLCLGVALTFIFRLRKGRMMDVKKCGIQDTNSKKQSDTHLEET

B1: bovine CMTM6 protein (CKLF-like MARVEL transmembrane domain-containing protein 6), BRIL fused to the C-terminus (natural protein, UniProt Q3ZBE8 1-182, looked up)
chain: MENGQVYRATTEAHPGPGIGPRSGLAAYFTLSRLTGFRRLKLLELVLSLLAFICEEVVSQCTLCGGLYFFEFVSCSAFLLSLLILVVYCTPVYDRVDPAKVKSSDFFITLGTGLVFFVASLTFTLTHDNTIAEIAAIVFGMLASLTYLAEFSFMLREKLKEPRPRKGEATMRREHLTEPLNA
notes: CMTM6, bovine; the crystal structure holds residues 33-165, and 32 amino-terminal and 17 carboxy-terminal residues were not modeled; Whether BRIL was on the crystallized sample is not clear from 'bCMTM6(-BRIL)'; also called bCMTM6; bCMTM6(-BRIL); source: purified (size-exclusion column); not shown: BRIL, C-terminal, kept
binding result: binds
